Tests used:
[1] = target: TCTP (translationally controlled tumor protein) (human) (UniProt P13693); test: SPR; Biacore 2000; TCTP amine-coupled on CM5 chip (697 RU); DDX3 injected in two-fold dilutions 0.195 to 100 nM, 30 ul/min; HBS-EP (10 mM HEPES pH 7.2, 150 mM NaCl, 3 mM EDTA, 0.005% Tween 20); 25 C; global Langmuir binding with drifting baseline
[2] = target: TCTP (translationally controlled tumor protein) (human) (UniProt P13693); test: SPR; positive control for the SPR experiments; who was immobilised and the conditions are not told for TSAP6 (Appendix Fig. S2); also run with sertraline and thioridazine

Chain of TCTP (translationally controlled tumor protein) (human) (P13693 whole entry): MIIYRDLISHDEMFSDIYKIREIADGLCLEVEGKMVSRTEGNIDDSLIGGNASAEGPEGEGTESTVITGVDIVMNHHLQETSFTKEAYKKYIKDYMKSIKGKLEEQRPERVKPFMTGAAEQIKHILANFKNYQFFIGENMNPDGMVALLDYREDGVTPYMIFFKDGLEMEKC

Kd [1] [nM] | Kd [2] [nM] | Substance
68.9 |  | DDX3 wild-type (from UniProt O00571 1-662)
 | 1000 | TSAP6 (Tumor Suppressor Activated Protein) (from UniProt Q658P3 1-488) (natural protein)
